Target: T1, mScarlet-V5-TurboID-Rab9a (human, UniProt P51151 1-201)
T1 sequence (looked up): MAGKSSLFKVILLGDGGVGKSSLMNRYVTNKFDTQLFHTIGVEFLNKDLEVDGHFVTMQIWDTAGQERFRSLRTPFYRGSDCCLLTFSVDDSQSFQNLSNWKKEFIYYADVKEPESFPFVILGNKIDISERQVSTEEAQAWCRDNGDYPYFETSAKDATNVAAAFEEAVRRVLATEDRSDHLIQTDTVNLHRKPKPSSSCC
Assay: proximity labelling

fold Rtn3L biotinylation, WT Rab9a against Rab9aΔFSV: 10 fold
B1: Reticulon-3L (Rtn3L), endogenous (natural protein, human (endogenous in HeLa), UniProt O95197-2 1-1013, looked up)
chain: MAEPSAATQSHSISSSSFGAEPSAPGGGGSPGACPALGTKSCSSSCAEGLSSLCSDEPSSEIMTSSFLSSSEIHNTGLTILHGEKSHVLGSQPILAKEGKDHLDLLDMKKMEKPQGTSNNVSDSSVSLAAGVHCDRPSIPASFPEHPAFLSKKIGQVEEQIDKETKNPNGVSSREAKTALDADDRFTLLTAQKPPTEYSKVEGIYTYSLSPSKVSGDDVIEKDSPESPFEVIIDKAAFDKEFKDSYKESTDDFGSWSVHTDKESSEDISETNDKLFPLRNKEAGRYPMSALLSRQFSHTNAALEEVSRCVNDMHNFTNEILTWDLVPQVKQQTDKSSDCITKTTGLDMSEYNSEIPVVNLKTSTHQKTPVCSIDGSTPITKSTGDWAEASLQQENAITGKPVPDSLNSTKEFSIKGVQGNMQKQDDTLAELPGSPPEKCDSLGSGVATVKVVLPDDHLKDEMDWQSSALGEITEADSSGESDDTVIEDITADTSFENNKIQAEKPVSIPSAVVKTGEREIKEIPSCEREEKTSKNFEELVSDSELHQDQPDILGRSPASEAACSKVPDTNVSLEDVSEVAPEKPITTENPKLPSTVSPNVFNETEFSLNVTTSAYLESLHGKNVKHIDDSSPEDLIAAFTETRDKGIVDSERNAFKAISEKMTDFKTTPPVEVLHENESGGSEIKDIGSKYSEQSKETNGSEPLGVFPTQGTPVASLDLEQEQLTIKALKELGERQVEKSTSAQRDAELPSEEVLKQTFTFAPESWPQRSYDILERNVKNGSDLGISQKPITIRETTRVDAVSSLSKTELVKKHVLARLLTDFSVHDLIFWRDVKKTGFVFGTTLIMLLSLAAFSVISVVSYLILALLSVTISFRIYKSVIQAVQKSEEGHPFKAYLDVDITLSSEAFHNYMNAAMVHINRALKLIIRLFLVEDLVDSLKLAVFMWLMTYVGAVFNGITLLILAELLIFSVPIVYEKYKTQIDHYVGIARDQTKSIVEKIQAKLPGIAKKKAE
modifications: biotinylated by TurboID in cells (sites not given)

Source: article PMC7837408 (Developmental cell, 2021)
